Assay: soluble on expression in E. coli; label from the status in PepcDB or PDB records

Question: For “MATPTEKQILTLAQWFSPAYPVGAFAYSHGLEWSVEAGDVVDARTAQAWITDVLQHGAGWNDCLFIGSAYRAASLQELKNINDTALAFSASSERMMETRLQGEAFCGITASVWPVDLAGLCYPVAVGRAANLVGLPLTLSGQFYLHAFMANLVTAATRLVPLGQTEGQQIIRDLTPLCQAIADTALCANLSHLTSTAFLGDIAAMKHETQYSRMFRTLEHHHHHH”, which “soluble on expression in E. coli” value is on record?
Answer: not soluble

Question: For “MATQGAWLRMTSSAKSMTKSTVTSKELGFLTSQLSGLRISYTPSDVINRISLPSFPGIQPIVARRICPFTGKKANRANKVSFSNHKTKKLQFVNLQYKRVWWEAGKRFVKLRLSTKALKTIEKNGLDAVAKKAGIDLRKKLEHHHHHH”, which “soluble on expression in E. coli” value is on record?
Answer: not soluble

Question: Which “soluble on expression in E. coli” value does the source give for “MATQMRLTDTNLLEVLNSEEYSGVLKEFREQRYSKKAILYTPNTERNLVFLVKSGRVRVYLAYEDKEFTLAILEAGDIFCTHTRAFIQAMEDTTILYTDIRNFQNIVVEFPAFSLNMVKVLGDLLKLLLTIINGLVFKDARLRLAEFLVQAAMDTGLKVPQGIKLELGLNTEEIALMLGTTRQTVSVLLNDFKKMGILERVNQRTLLLKDLQKLKEFSSGV” here?
Answer: soluble

Question: For “MATRGPTPDKARMGLPDRWLHCPKTGTLINNLFFPFKTPLCKMYDNQIAERRYQFHPAEVFSHPHLHGKKIGLWIDLTNTDRYYFREEVTEHECIYHKMKMAGRGVSPTQEDTDNFIKLVQEFHKKYPDRVVGVHCTHGFNRTGFLIAAYLFQVEEYGLDAAIGEFAENRQKGIYKQDYIDDLFARYDPTEDDKILAPEKPDWEREMSIGMSTQIDNGRPSTSQQIPATNGNNNQNGNQLSGGGDNSKLFMDGLIRGVKVCEDEGKKSMLQAKIKNLCKYNKQGFPGLQPVSLSRGNINLLEQESYMVSWKADGMRYIIYINDGDVYAFDRDNEVFEIENLDFVTKNGAPLMETLVDTEVIIDKVEINGAMCDQPRMLIYDIMRFNSVNVMKEPFYKRFEIIKTEIIDMRTAAFKTGRLKHENQIMSVRRKDFYDLEATAKLFGPKFVQHVGHEIDGLIFQPKKTKYETGRCDKVLKWKPPSHNSVDFLLKVEKKCKEGMLPEWIGYLFVQNLSDPFGTMKATATLKKYHNKIIECTLLVDNQGRPKEWKFMRERTDKSLPNGLRTAENVVETMVNPVTETYLIEYVNHALRVLKRAAAAHRHHQIHQQQLHEGEPEARRQKL”, which “soluble on expression in E. coli” value is on record?
Answer: not soluble

Question: For “MATRPKTIWESFLSPVVRFLMDEDKWRRYAQSIDWEKESDRFRRTDVIIPSYYTSQNFHGIEGGYLNSSAAVTYDPITEYVLPPNETLVRQALIDGVKVQPRRILDLGCGTGSTTLMLKQAFPQADVIGLDLSPYMLVRAEDKARTADLDISWRHGNAEKTSFPNASFDLVTTSLLFHETPVEVSQTILQECFRLLVAGGQVIILDGNQKSLRQLNWLNDIFEEPYIREYAADNLDARMGAAGFVGVQTEDLWLIHQVTSGIKPILATDTNQIKDRQYMPAIDNNNLEGLESPAFGIVALEHHHHHH”, which “soluble on expression in E. coli” value is on record?
Answer: not soluble

Question: For “MATSFRYGHGGSYKSACAVWFDLLPALREGRICITNIHGMQPLEVIEQRLGEKFPDTARLIRISSRNPEGFELWKYFFCWAPIGAFILIDECQQIFSVNAGFKMANIHKRPFTDFEPHLPEGFSELFHSRWLTIDTSSLDNGEIDDCQRTRFDEQGRIIYPENFNNAFMEHRHYNWDIVLLTPDFAQIPKELKGVAELAKQHKGKDGIFFSNRKPRILEHDPTRTVTKPSKDDVVYNLKVPLDVHLLYASTVTGQ”, which “soluble on expression in E. coli” value is on record?
Answer: not soluble

Question: With “MATSKLQAIWNHPAGPKTIHFWAPTFKWGISIANIADFAKPPEKLSYPQQIAVTCTGVIWSRYSMVINPKNWNLFSVNVAMAGTGIYQLARKIKHDYATEAEPAVASE” as the sequence, how does the “soluble on expression in E. coli” value read?
Answer: soluble

Question: Which “soluble on expression in E. coli” value does the source give for “MATSVLCCLRCCRDGGTGHIPLKEMPAVQLDTQHMGIWGIGVATQKVNLNQIPLGRDMHSLVMRNDGALYHNNEEKNRLPANSLPQEGDVVGITYDHVELNVYLNGKNMHCPASGIRGTVYPVVYDDDSAILDCQFSEFYHTPPPGFEKILFEQQIF” here?
Answer: not soluble

Question: Which “soluble on expression in E. coli” value does the source give for “MATTKLSATKSTSRAINYAEKRAVEKSGLNCDVDYAKSSFKAARELYGKTDGNQGHVIIQSFQPGEVTPEQCNQLGLALAEKLVPNHQVAVYTHADTNHVHNHIVLNSIDLNTGKKFNNNKQALRDVRAFNDEVCRAQGLSVPEKDTARLRYTQTEKAIADPNTTSTAQYSWKDDIREAIDQSTATNMEEFQKHLNQHGITIERVTPKSITYRHLAENKKVRGRKLGEDYNKGGIQHGFERQIQRRQQQKHKSDTNFQPKRSTSNRHESTERDTGVTQSDWDQFAQDTNELERRRQAAESARLVDEKARRDREKRVREKPTSRPIINIDRDHGLEL” here?
Answer: not soluble

Question: Which “soluble on expression in E. coli” value does the source give for “MATTKRVLYVGGLAEEVDDKVLHAAFIPFGDITDIQIPLDYETEKHRGFAFVEFELAEDAAAAIDNMNESELFGRTIRVNLAKPMRIKE” here?
Answer: soluble

Question: Which “soluble on expression in E. coli” value does the source give for “MATTLKPVDAVVVGFGWTGAILAKELTEAGLNVVALERGENRDTYPDGAYPNTLDELTYNTRGKLFQNLSKSTVSIRHGINDTALPYRQLSAFLPGDGVGGAGLHWSGVHFRIMPEELRLRSHYEERYGKKFIPEGMTIQDYGVSYEELEPHFDFAEKVFGTSGTAHTVKGQVVGKGNPFAADRSDDFPLPALRQVYSAQLFRKAAEELGLHPYDLPAANASGPWTNPYGVQMGPCNFCGFCSGYACYMYSKASPNLNILPALRQTPLFELRANCNVLKVNLDSDGRQATGVTYVDAQGREIVQPAKLVIISAFQFHNVRLLLLSGIGKPYDPRTGEGVVGKNFAYQNMATIKAFFDKDVHTNPFVGTGGGGVAVDDFNADNFDHGPLGFVGGSPMWVNQAGSKPIGGLAVPPGTPSWGSGWKQAVKDAYTHTVSMDAHGSNMTYRDNYLDLDPTYKDAYGQPLLRMTFDWKDNEIRMSRYVTEHMRKIAEAMNPKAISVSVKNFGDHFNTRVYQTTHLLGGAIMGSDPKTSVLNRYLQSWDVHNVFVMGASAFPQGTGYNPTGLVAALAYWSAKAIREQYLKNPGPLVQALEHHHHHH” here?
Answer: not soluble

Question: For “MATVSDDYAQIDISTEEKDKLVAEVMRHVLFKTHQTAGCPIKREELTQIVTKNYRQRVLPALVIKEAGDRLAATFGYEMRELQRTRAPSTRSGRPSQQQVNVDAKSYVLVSKLDPEVYSKYVEHKEAAHVSGFAFVVISIVHLSGGKISEEDLWHQLRRLGLNESDENHPVLGNNKQALELLVQQRYLLKEKLSGPEGHSMMYELAERALDESISGKLKDYISQVVSTSTAAEVD”, which “soluble on expression in E. coli” value is on record?
Answer: soluble

Question: With “MAVAPTAREENVYMAKLAEQAERYEEMVEFMEKVSNSLGSEELTVEERNLLSVAYKNVIGARRASWRIISSIEQKEESRGNEEHVNSIREYRSKIENELSKICDGILKLLDAKLIPSAASGDSKVFYLKMKGDYHRYLAEFKTGAERKEAAESTLTAYKAAQDIATTELAPTHPIRLGLALNFSVFYYEILNSPDRACNLAKQAFDEAIAELDTLGEESYKDSTLIMQLLRDNLTLWTSDMQDDGADEIKEDPKPDEAKN” as the sequence, how does the “soluble on expression in E. coli” value read?
Answer: soluble

Question: Which “soluble on expression in E. coli” value does the source give for “MAVEEFNQNLNEIMKFKECNITVDTCVVIDGRITELISDGTIEKCTIIVPEAVISELEAQANKGREIGYFGIEELKKLVKVAKENEMVLEYYGERPSTGEVSLAKAGEIDAMIRKVAKDTNSILFTSDRIQYNLAIAQNINAHFLKVHEEKVDLKLV” here?
Answer: not soluble

Question: For “MAVIEAEGLWKIFGGDPERARTLAKEGMSKAEVKEETGSVIAVDDANFEVQEQEIFVVMGLSGSGKSTLLRCVNRLIEPTFGKVHVHDDEVTAFDEDRLRKLRRTKMSMVFQNFGLFPHRTVIGNVEYGLEVAGMDKEKRRGKARQSLELVGLDGYEDSQTSQLSGGMQQRVGLARALVNDPEILLMDEAFSALDPLIRADMQNELLELQEQWDPACTILFITHDLDEALKMGDRIAIMKDGRIAQIGTPTEILTEPADEYVRSFVENVDRTKIVPARTVMRALGDDETVAADGPSVSPHTPIAELLPALVDADGPLAVRDSGGTLQGVVSQDAVMEEVVQNADGARRRDARAGRTDEDPEAAVALEHHHHHH”, which “soluble on expression in E. coli” value is on record?
Answer: soluble

Question: Which “soluble on expression in E. coli” value does the source give for “MAVNPATGKSDFVMMSEQQELGMGARYNQEILKQFPRYNDEKLQAYVQRVGERVARSSHRSNLQYHFTVIDSPDINAFALPGGYIYIHRGLIAYLGSEAELAAVLGHEVGHVTARHSVRQQSQASAWNILGQAVAIGTGVGAAGDLANVLGTAFVRGYGRDMELEADGLGAQYLARAGYDPTAMIQVVRVLKNQEDFAREEAARNGQAVQAGGYHGLFDTHPDNDRRLQEVVGPARQLANGQQEVGREVFLRHLEGMPFGDSASAGVRRGQNFYHAELDFTLSYPAGWKILNQPSALLGYPADEQSFIGMKLVPHDSRLTPAEFLRKNAGQRLAQEESLKQAGLNGYTAVVPGNPARRVAVIYQGDRAYLFVGVVKVGSLETQDDRFLSVIRSFRPLRDKERALAQPRRLHLVQVKAGQTLEQLAAGGEGSLSDSVARLRLLNDLYPSGEPRPGDWLKVVRLEHHHHHH” here?
Answer: not soluble

Question: With “MAVSDNTFSMSTMFNALPNPTETSGYIPPSGFAPRASATPLHAALFNLMTDGDGVSYFKEMISKSDKTELQRMASLLTSDSDYFMSIVTTKFGSRRVQKLLGKSDDVDAFFCAAILRRFLHITTDKYASYVTIRAMVVFDKVMKKALYERILYHALDLACDQHGCIALNDIITDADDPYYRDQLLELVVSNALRLSNDASGNFVVQHVLTLYDSRCIHNIAVNLYGQCIELSFKKYGSYIVEKLLEVEESMVVVVVELLGCDGDRLMRLARNEFGNFVVVKALRFTKEMRMDLFWGLVQKLMPFIHLLRRSHGNNIANILDTFRLRC” as the sequence, how does the “soluble on expression in E. coli” value read?
Answer: soluble

Question: For “MAVSLPTKYPLRPITNIPKSHRPSLLRVRVTCSVTTTKPQPNREKLLVEQRTVNLPLSNDQSLQSTKPRPNREKLVVEQRLASPPLSNDPTLKSTWTHRLWVAAGCTTLFVSLAKSVIGGFDSHLCLEPALAGYAGYILADLGSGVYHWAIDNYGDESTPVVGTQIEAFQGHHKWPWTITRRQFANNLHALAQVITFTVLPLDLAFNDPVFHGFVCTFAFCILFSQQFHAWAHGTKSKLPPLVVALQDMGLLVSRRQHAEHHRAPYNNNYCIVSGAWNNVLDESKVFEALEMVFYFQLGVRPRSWSEPNSDWIEETEISNNQA”, which “soluble on expression in E. coli” value is on record?
Answer: soluble

Question: With “MAVTVDDIKLSLRIDVTEDDPMIKSYLDAAKDYVQTAVSKNEDLTIYKQYDFAVSLLTQFWYQNRVTDMTKTPYQVVSMIQQLRGLVAG” as the sequence, how does the “soluble on expression in E. coli” value read?
Answer: not soluble

Question: For “MAYFFKNLVFEGGGVKGIAYIGALEVLQEEKIFPKIKRVAGTSAGAIMAVLIGLGYTPSEIKEIMWCLNFKNFMDDSWGIIQDTKRLIEKFGWYKGDFFRNWLGDLIKAKTGNSESTFADLAAMKGENKFLDISLIGTNLSTGFSEIFSAEHTPRICIADAARISMSIPLFFAAKRNFRNDVYVDGGMLNNYPVKVFDRTKYVTKNFTRTGYYEPINKKLEKRPRKIADYVYNKETLGFRLDSKEKIAFFRDNAEPPHRDIDSFFDYTVSLFGTLLSAQDDVHLHSDDWQRTIYIDTLGVKTTDFAISDAQKKALLESGRSYTQSYLEWYNNSEEKVNK”, which “soluble on expression in E. coli” value is on record?
Answer: not soluble

Question: With “MAYNLKEVAKKPERLTGGHRMCAGCGAPIVVRQVLKALKPEDHAVISAATGCLEVSTFIYPYTAWKDSFIHSAFENTGATISGAEAAYKVLKKKGKIEGETKFIAFGGDGGTYDIGLQALSGAMERGHDMVYVCYDNGAYMNTGIQRSSATPKYADTTTSPVGKKIPGKMQPRKDLTEVLVNHRIPYVAQTAPFGNMKDLYEKAEKAIYTPGPAFLNVLAPCPRGWRYNTPDLMELSKLAVETCFWPLYEVIDGKYIINYKPKEKVPVKEFLKLQGRFKHLFKAGNEYMLEEIQKEVDLRWERLLKLAGEA” as the sequence, how does the “soluble on expression in E. coli” value read?
Answer: not soluble

Question: For “MAYSKIRQPKLSDVIEQQLEFLILEGTLRPGEKLPPERELAKQFDVSRPSLREAIQRLEAKGLLLRRQGGGTFVQSSLWQSFSDPLVELLSDHPESQYDLLETRHALEGIAAYYAALRSTDEDKERIRELHHAIELAQQSGDLDAESNAVLQYQIAVTEAAHNVVLLHLLRCMEPMLAQNVRQNFELLYSRREMLPLVSSHRTRIFEAIMAGKPEEAREASHRHLAFIEEILLDRSREESRRERSLRRLEQRKN”, which “soluble on expression in E. coli” value is on record?
Answer: soluble

— the DeepSol protein solubility set
